Measurements taken from patent publication US20240075152A1.

Experiments:
[1] = target: GCN4-p2L variant (trimeric variant of GCN4 peptide with N-terminal NTA and C-terminal His2), assembled into hexagonal 3D crystals with Zn2+; assay: derived from the EDTA dissolution data and the hourglass volume (about 50%)
[2] = target: GCN4-p2L variant (trimeric variant of GCN4 peptide with N-terminal NTA and C-terminal His2), assembled into hexagonal 3D crystals with Zn2+; assay: crystals dissolved with EDTA; peptide by UPLC, protein by fluorescence spectroscopy

- coiled-coils for each protein guest within the hourglass section (coiled-coils per protein) [1]: 30 to 35
- coiled-coil units for each protein guest (coiled-coil units per protein) [2]: 60 to 70
- ratio of peptide to protein cargo in the crystals (peptide : protein) [2]: 200
Substance: Enhanced green fluorescent protein with an N-terminal His6-tag (EGFP)
